± gives the standard deviation.

Results on 53 sequences are retold here after the supplement of paper PMC10567573.

This data set is described as follows: protein stability index of a GFP-peptide fusion (GPS, HEK-293T) (PSI 1-6); higher = more stable.
Where [1] appears, read: treatment: DMSO, c terminus: a fixed tail appended.
Setting [2] is: treatment: MLN4924 1 uM, 8 h, c terminus: a fixed tail appended.
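Note: 24-mer peptide tiles fused after GFP, lentivirally expressed, FACS-sorted into six equal bins by GFP/DsRed ratio, decoded by Illumina sequencing, PSI is the read-weighted mean bin number.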

Take CFVEFHEHRHAAAALAAMNGRKIM [TIA1]: the protein stability index runs as follows: under setting [1], 2.71 ± 0.14; under setting [2], 2.81 ± 0.17.

For QSVKMKDKLKIDLLPDGRHAVVEV [TAF7L], the protein stability index reads like this: under setting [1], 2.87 ± 0.32; under setting [2], 3.06 ± 0.36.

VLVLCVFNSILPGVLILFLTFFAF [SOAT1]: the protein stability index by setting is: under setting [1], 3.37 ± 0.25; under setting [2], 3.17 ± 0.22.

Consider AAAQAPENFQEGKDMSESQDEVPD [TAF7L], for which the protein stability index under setting [1] worked out at 5.62 ± 0.24 and the protein stability index under setting [2] was found to be 5.58 ± 0.23.

Turning to ALMRMLDNLGYRTGYPYRYPALRE [ADD1], the protein stability index is, setting by setting: under setting [1], 2.79 ± 0.4; under setting [2], 2.65 ± 0.59.

As to CDDGGDGRGAVVPGAGLRRPTYTP [ZBTB22], the protein stability index runs as follows: under setting [1], 4.35 ± 0.23; under setting [2], 4.25 ± 0.26.

Regarding LLISCAVSYRGAWWYRNCHYANLN [TNXB], the protein stability index was determined as 2.97 ± 0.19 under setting [1] and 2.99 ± 0.72 under setting [2].

For PSVCSENIHPQVLLPDQARGEVPW [ZNF263], the protein stability index worked out at 4.19 ± 0.22 under setting [1] and 4.34 ± 0.37 under setting [2].

In the case of LVVNIDNAKLASDDFRSKYQTEQS [KRT34], the protein stability index was found to be 3.65 ± 0.2 under setting [1] and 3.62 ± 0.2 under setting [2].

As for TVVGVPSGKVSSSSSSLGNKLQTL [ZC2HC1A], the protein stability index is 3.56 ± 0.34 under setting [1] and 3.73 ± 0.29 under setting [2].

As for NLSEFQHVISRSPDFASSFKIVL [CIB1], the protein stability index came to 2.29 ± 0.45 (treatment: DMSO, c terminus: native) and 2.32 ± 0.44 (treatment: MLN4924 1 uM, 8 h, c terminus: native).

As for LALLVLAHSSDVLENVFSSLTDDK [GOLPH3L], the protein stability index amounted to 2.85 ± 0.57 under setting [1] and 2.83 ± 0.49 under setting [2].

On to EEWLDILGNGLLRKKTLVPGPPGS [FKBP8], for which the protein stability index by setting is: under setting [1], 2.62 ± 0.12; under setting [2], 2.78 ± 0.5.

Regarding IRERATIEETYSKAMAKLSKLASN [FCHO1], the protein stability index worked out at 3.02 ± 0.19 under setting [1] and 2.91 ± 0.3 under setting [2].

On to RWKRRRSYSREHEGRLRYPSRREP [CLK3], for which the protein stability index came out at 3.86 ± 0.39 under setting [1] and 4.14 ± 0.36 under setting [2].

With GRWVNENCRLQSPYFSPSASFHHK [CBY2], the protein stability index by setting is: under setting [1], 2.89 ± 0.19; under setting [2], 2.86 ± 0.31.

As for AAAAKAFKHPSIRNPVSLVVTRLV [ADAMTS4], the protein stability index runs as follows: under setting [1], 2.22 ± 0.49; under setting [2], 2.67 ± 0.48.

ASSRASENQSPSSSNYFSPRESTD [ZBTB22]: the protein stability index runs as follows: under setting [1], 5.3 ± 0.29; under setting [2], 5.167 ± 0.043.

With APGPSPADKKRSGKKKISKADIGA [WAS], the protein stability index is, setting by setting: under setting [1], 5.02 ± 0.23; under setting [2], 4.86 ± 0.17.

KENKDVIQKNKLKLTREQEELEEA [MNAT1]: the protein stability index is, setting by setting: under setting [1], 5.49 ± 0.29; under setting [2], 5.37 ± 0.31.

As to IKENAQDTMRQINKKGFWSYGPVI [TOR1AIP2], the protein stability index is, setting by setting: under setting [1], 2.51 ± 0.45; under setting [2], 2.52 ± 0.26.

As to VCGGAQRPGHLPGLLLGSHGLLGS [CDC25B], the protein stability index amounted to 1.9 ± 0.96 under setting [1] and 3.24 ± 1.6 under setting [2].

In turn, KKRVSMILQSPAFCEELESMIQEQ [ADD1] came in with a protein stability index under setting [1] of 3.58 ± 0.27 and a protein stability index under setting [2] of 3.76 ± 0.43.

KHAKKEREESLPNLLQYVRMPLLT [KLHL12]: the protein stability index came out at 3.26 ± 0.26 under setting [1] and 3.28 ± 0.16 under setting [2].

Turning to FMLLLIFFAFLHCWLNAFAEMLRF [SOAT2], the protein stability index by setting is: under setting [1], 3.07 ± 0.18; under setting [2], 2.88 ± 0.57.

As to QKISLLHSCTCVLYTPSNEHFGIV [ALG2], the protein stability index came to 2.55 ± 0.84 under setting [1] and 2.61 ± 0.8 under setting [2].

MFVFQDGRWVNENCRLQSPYFSPS [CBY2] returned a protein stability index under setting [1] of 2.36 ± 0.37 and a protein stability index under setting [2] of 2.05 ± 0.42.

Consider YQSYFKTIEELQQKILCSKSENAR [KRT33B], for which the protein stability index under setting [1] was found to be 2.57 ± 0.38 and the protein stability index under setting [2] was found to be 2.84 ± 0.49.

For VLIDLWKITKVMDVRLDREHRVAG [CLPTM1], the protein stability index reads like this: under setting [1], 2.49 ± 0.68; under setting [2], 2.57 ± 0.83.

As to GANVKPRNSTPPSLARNPAPGVLT [ZC2HC1A], the protein stability index by setting is: under setting [1], 4.24 ± 0.23; under setting [2], 4.16 ± 0.5.

On to AQEDSLNKLALQYGCKVADIKKVN [LYSMD4], for which the protein stability index reads like this: under setting [1], 3.41 ± 0.14; under setting [2], 3.71 ± 0.15.

As to EKLGSGEPSHSVKVHTVPKPGKGA [ATE1], the protein stability index stood at 5.04 ± 0.23 under setting [1] and 5 ± 0.22 under setting [2].

Regarding TGLVGLFVDFFVRLFTQLKFGVVQ [CLCN6], the protein stability index amounted to 2.36 ± 0.36 under setting [1] and 2.54 ± 0.22 under setting [2].

As for SRILNEMRDQYEQMAEKNRRDAET [KRT16], the protein stability index runs as follows: under setting [1], 4.65 ± 0.27; under setting [2], 4.78 ± 0.27.

Take TEDCPTGSALTFREEQCAAYNHRT [ADAMTS4]: the protein stability index runs as follows: under setting [1], 5.09 ± 0.22; under setting [2], 5.03 ± 0.12.

Consider VLNDRFQRQKYLSLQQMQELSNIL [NANOGP8], for which the protein stability index reads like this: under setting [1], 2.52 ± 0.11; under setting [2], 2.64 ± 0.32.

Turning to DYVMTTLLFSDKNVNSNLITWNRV [TRIP13], the protein stability index under setting [1] stood at 2.4 ± 0.75 and the protein stability index under setting [2] was 2.36 ± 0.62.

SGSDSGGSSSSSSSSINSPDRASG [FAM104A]: the protein stability index was determined as 5.36 ± 0.33 under setting [1] and 5.47 ± 0.11 under setting [2].

On to PGPERLFDSHRLPGDCFLLLVLLL [AUP1], for which the protein stability index reads like this: under setting [1], 2.46 ± 0.54; under setting [2], 2.14 ± 0.59.

In the case of GGGDISVKELGTVMRMLGQTPTKE [TNNC2], the protein stability index under setting [1] came out at 4.04 ± 0.05 and the protein stability index under setting [2] was 3.64 ± 0.83.

Consider EPGRLGSSSPASVTTEQLGAKMTE [PXN], for which the protein stability index by setting is: under setting [1], 5.2 ± 0.46; under setting [2], 5.23 ± 0.24.

For AIEIFRYSFYMLTCIDMDWKVLTW [HACD3], the protein stability index came to 3.23 ± 0.4 under setting [1] and 2.57 ± 0.53 under setting [2].

KVVHAVDGTAENGIHPLSSSEVDE [PALM] returned a protein stability index under setting [1] of 5.25 ± 0.11 and a protein stability index under setting [2] of 5.47 ± 0.19.

TWALYNLVSVYPDKYCPLLIKEGG [ZER1]: the protein stability index by setting is: under setting [1], 2.62 ± 0.99; under setting [2], 2.26 ± 0.34.

As to RRSSLVITTKIFWGGKAETERGLS [KCNAB2], the protein stability index is, setting by setting: under setting [1], 2.09 ± 0.42; under setting [2], 2.15 ± 0.29.

For MKLFLDCLKEFPEKQELHRNMLGL [ZER1], the protein stability index is 2.35 ± 0.11 under setting [1] and 2.4 ± 0.35 under setting [2].

As for GGGTPSLASPHTVAAVLEAVAQTA [RSAD1], the protein stability index is, setting by setting: under setting [1], 3.46 ± 0.52; under setting [2], 3.54 ± 0.3.

Turning to VTQMNHIPMHIDHDRNMDWVSTQL [FADS1], the protein stability index by setting is: under setting [1], 3.14 ± 0.45; under setting [2], 3.02 ± 0.21.

Take GLSSSSARFLSRSIPSLQSEYVHY [CDC14A]: the protein stability index reads like this: under setting [1], 2.97 ± 0.53; under setting [2], 3.02 ± 0.21.

Regarding RSTCNVVQDEFLDTPCTNRGLPLL [DLC1], the protein stability index came out at 3.21 ± 0.27 under setting [1] and 3.21 ± 0.42 under setting [2].

As to AYVAEREDELSLVKGSRVTVMEKC [NCK2], the protein stability index was 4.31 ± 0.31 under setting [1] and 4.48 ± 0.19 under setting [2].

As to LTQKKPFADEKNILHIMVKVVKGH [RIPK4], the protein stability index under setting [1] was 2.01 ± 0.18 and the protein stability index under setting [2] came to 1.79 ± 0.48.

On to EQQQILIRQLQEQHYQQYMQQLYQ [ACBD3], for which the protein stability index under setting [1] was 2.2 ± 0.38 and the protein stability index under setting [2] worked out at 2.24 ± 0.3.
